Assay results from patent US6444644B1, “Anticoagulant peptide fragments derived from apolipoprotein B-100” (University College London, priority 1996, dated 2002).
Each block holds one molecule with its values, some of them ahead of it.

What was measured:
thromboplastin [1] = target: T1, thromboplastin (Homo sapiens, UniProt P13726); test: Effect of thromboplastin peptide (58-66) on thromboplastin activity (one-stage prothrombin time assay); assay type: biochemical; settings: for effect on the procoagulant activity of thromboplastin (in words) / Procoagulant Activity of thromboplastin: peptide 1 μM, thromboplastin 100 nM; for Procoagulant Activity of thromboplastin: 5 min, 37° C., distilled water 6.70 U/ml
T1 construct: purchased Gamidor Ltd. (Oxfordshire, U.K.)
Description: The control peptide ([…]) was reconstituted to 1 mM in distilled water. The control peptide was similar but not identical to the thromboplastin (58-66), in size, charge and amino acid composition but with a different sequence. In order to assess the effect of the thromboplastin peptide (58-66) on the activity of thromboplastin, samples of recombinant thromboplastin (100 nM) were incubated for 5 min, with the isolated thromboplastin-peptide ([…]), control peptide (1 μM) or distilled water at 37° C. prior to assaying using the one-stage prothrombin time assay. The activity was calculated from a thromboplastin standard curve.
Three aliquots of thromboplastin (100 nM) were incubated for 5 min, with the isolated thromboplastin peptide (1 μM), control peptide (1 μM) or distilled water at 37° C. prior to assaying using the one-stage prothrombin time assay. The activity was calculated from a thromboplastin standard curve. The data were obtained from 3 separate experiments.

[2] = target: T2, interaction of thromboplastin with apo B-100 (Homo sapiens, UniProt P13726); test: Influence of peptide 58-66 on the inhibition of thromboplastin by apo B-100; assay type: biochemical; settings: peptide 1 μM, thromboplastin 100 nM, apo B-100 250 nM, 37° C., up to 180 min
T2 construct: purchased Gamidor Ltd. (Oxfordshire, U.K.) for thromboplastin; apoB-100 isolated and reconstituted in house
Description: (250 nM final concentration) in the presence and absence of the isolated thromboplastin peptide (1 μM) or control peptide (1 μM), at 37° C. Aliquots (100 μl) were removed at the start and at various intervals up to 180 min and assayed by means of the one-stage prothrombin time assay. The residual activity of thromboplastin measured in the samples was compared to the initial activity, at time zero, and percentage inhibition calculated.
Samples of thromboplastin (100 nM) were incubated with reconstituted apo B-100 (250 nM final concentration) in the presence (▪) and absence (▾) of the isolated thromboplastin peptide (1 μM), at 37° C. Aliquots ([…]) were removed at the start (time zero) and at various intervals up to 180 min and assayed by means of the one-stage prothrombin time assay. The data presented are representative of 5 independent experiments.

thromboplastin [3] = target: T1, thromboplastin; test: Time-course inhibition of thromboplastin procoagulant activity (one-stage prothrombin time and two-stage amidolytic assay); assay type: biochemical; settings: 500 nM, 37° C.; for effect on thromboplastin (in words): up to 120 min
Description: The one stage prothrombin time assay was carried out by the addition of 100 μl of the sample to 100 μl of 25 mM CaCl2 solution and incubation prior to addition of 100 μl of control plasma. The clotting time was measured on the coagulometer. The two-stage amidolytic assay was carried according to published procedures. In all cases the thromboplastin activity was calculated from a standard curve prepared previously and the percentage inhibition was calculated as 100×[…].
The apolipoprotein B-100 control peptide (fragment 3358-3372) containing the sequence TRLTRKRGLKLATAL was reconstituted in distilled water to 1 mM. The freeze-dried samples were reconstituted in distilled water to a concentration of 1 mM. Two 200 μl samples of thromboplastin (10 U/ml) were incubated with 500 nM KRAD-14 or apolipoprotein B-100 control peptide at 37° C. for 45 min. Another set of 200 μl samples of thromboplastin (10 U/ml) were incubated with either 500 nM KRAD-98 or the chloramphenicol acetyltransferase control protein. […] Following the incubation the thromboplastin activity in all the samples was measured by means of the one-stage prothrombin time assay and the two-stage amidolytic assay and the percentage inhibition calculated against the control containing distilled water.
The above experiments were repeated using 1 ml samples containing recombinant thromboplastin (10 U/ml) mixed with either 500 nM KRAD-14, 500 nM KRAD-98 or 500 nM apolipoprotein B-100, reconstituted as described before. The concentrations used are equivalent to that of apolipoprotein B-100 in normal plasma. 100 μl of the each sample was removed immediately and assayed for thromboplastin activity, by means of the one-stage prothrombin time assay. The rest of the samples were incubated at 37° C. and further 100 μl samples were removed at intervals up to 120 min and measured as before. The percentage inhibition was calculated against a control sample of thromboplastin.
Three 1 ml samples containing recombinant thromboplastin (10 U/ml) were mixed with 500 nM KRAD-14 (solid square), 500 nM KRAD-98 (open square) or 500 nM apolipoprotein […] (triangle), reconstituted as described before. The concentrations used are equivalent to that of apolipoprotein B-100 in normal plasma. 100 μl of the each sample was removed immediately and assayed for thromboplastin activity, by means of the one-stage prothrombin time assay. The rest of the samples were incubated at 37° C. and further 100 μl samples were removed at intervals up to 120 min and measured as before. The thromboplastin activity was calculated from a standard curve prepared previously and the percentage inhibition was calculated as 100×[…]. The curves are typical of data from four sets of experiments.

[4] = target: T3, thromboplastin, reconstituted in phosphatidylcholine (Homo sapiens, UniProt P13726); test: Inhibition of delipidated thromboplastin reconstituted in phosphatidylcholine; assay type: biochemical; settings: 500 nM sample, 37° C., 30 min; for Procoagulant Activity: distilled water control 4.70 U/ml
T3 construct: purchased Gamidor Ltd. (Oxfordshire, U.K.)
Description: In other experiments, recombinant thromboplastin (1 mg/ml) was delipidated with chloroform/methanol as described previously, to remove phosphatidylserine and other lipids and reconstituted with phosphatidylcholine (1 mg/ml) to differentiate between the effects of the prepared samples on the protein moiety of thromboplastin and any effects on the thromboplastin-associated phosphatidylserine. […] The percentage inhibition was calculated against the control sample.
Recombinant thromboplastin was delipidated to remove phosphatidylserine and other lipids and reconstituted at 1 mg/ml with phosphatidylcholine (1 mg/ml). […] The % Inhibition was calculated against the control. The data were obtained from 3 separate experiments.

[5] = target: recombinant thromboplastin (UniProt P13726 33-295, limits assumed); test: cell-based or functional assay
[6] = tested on: T4, KRAD-14 peptide (recombinant, released from the biotinylated fusion protein with chymotrypsin)
T4 sequence: KAQSKKNKHRHSTT

thromboplastin [7] = target: T1, thromboplastin; test: Inhibition of thromboplastin in the presence of plasma; assay type: biochemical
Description: […] The samples were then assayed by addition of 100 μl of […] CaCl2 solution and measurement on the coagulometer. The percentage inhibition in each case calculated against a similarly treated sample, containing thromboplastin only.

T1 sequence (P13726 33-295): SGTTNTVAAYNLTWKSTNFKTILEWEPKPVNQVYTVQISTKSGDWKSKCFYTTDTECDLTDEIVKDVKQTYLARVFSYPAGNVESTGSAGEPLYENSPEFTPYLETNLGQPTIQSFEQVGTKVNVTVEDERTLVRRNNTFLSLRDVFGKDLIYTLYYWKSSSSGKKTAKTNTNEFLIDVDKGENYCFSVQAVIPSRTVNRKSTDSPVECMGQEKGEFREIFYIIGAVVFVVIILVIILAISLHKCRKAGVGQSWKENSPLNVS
T3 sequence (P13726 33-295): as above
T2 sequence (P13726 33-295): as above

Molecule: DLTDEIVKD [thromboplastin-derived peptide (58-66), recombinant peptide of thromboplastin residues 58-66]
effect on the procoagulant activity of thromboplastin (in words) (thromboplastin [1]): enhanced the procoagulant activity of thromboplastin | endogenous procoagulant activity of the peptide (thromboplastin [1]; peptide alone): no endogenous procoagulant activity | Procoagulant Activity of thromboplastin (thromboplastin [1]): Peptide 56-66 (7.45 U/ml) | effect on the rate of inhibition of thromboplastin activity by reconstituted apo B-100 [2]: accelerated the rate of inhibition of thromboplastin activity

Molecule: Reconstituted apolipoprotein B-100: apolipoprotein B-100 isolated from LDL by delipidation and gel filtration, reconstituted in phosphatidylcholine
inhibition of the procoagulant activity of thromboplastin (thromboplastin [3]; 90 min incubation): > 95% | % Inhibition ([4]; against distilled water control): 62% | Procoagulant Activity [4]: (1.79 U/ml)

Molecule: VQGEESDNK [Control peptide]
effect on the procoagulant activity of thromboplastin (in words) (thromboplastin [1]): did not have any significant effect | Procoagulant Activity of thromboplastin (thromboplastin [1]): Control peptide (6.75 U/ml)

Molecule: reconstituted apolipoprotein B-100 (from UniProt P04114 28-4563)
% Inhibition of thromboplastin delipidated and reconstituted in phosphatidylcholine; 500 nM, 30 min, 37 C [5]: 62% | Procoagulant Activity left of thromboplastin reconstituted in phosphatidylcholine; 500 nM, 30 min, 37 C [5]: 1.79 U/ml | inhibition of procoagulant activity of thromboplastin, time course (FIG. 1), 70 min [5]: > 90%

Molecule: thrombin
clotting ability and amidolytic proteolytic activity of thrombin (100 nM) after incubation with 500 nM peptide [6]: The KRAD-14 peptide (500 nM) did not affect either the clotting ability or the amidolytic proteolytic activity of thrombin (100 nM)

B1: KRAD-98 peptide (recombinant, released with enterokinase) (peptide)
peptide: LKDESLWEKTGLKEFLKTTKQSFDLSVKAQYKKNKHRHSITNPLAVLCEFISQSIKSFDRHFEKNRNNALDFVTKSYNETKIKFDKYKAEKSHDELPR
influence of plasma on the ability to inhibit thromboplastin activity (in words) (thromboplastin [7]; plasma included during the incubation prior to assaying, peptide 500 nM): did not significantly affect | inhibition of thromboplastin activity in the presence of plasma (thromboplastin [7]; plasma present, 37° C., 40 min incubation): 95% | % Inhibition of thromboplastin delipidated and reconstituted in phosphatidylcholine; 500 nM, 30 min, 37 C [5]: 85% | Procoagulant Activity left of thromboplastin reconstituted in phosphatidylcholine; 500 nM, 30 min, 37 C [5]: 0.71 U/ml | inhibition of the procoagulant activity of thromboplastin (thromboplastin [3]; 45 min incubation): 95% | Procoagulant Activity [4]: (0.71 U/ml)

Continued, in another order:

effect on thromboplastin (in words) (thromboplastin [3]; listed as cationic peptide from apolipoprotein B-100 (fragment 3358-3372)): had no effect | Procoagulant Activity [4]: (3358-3372) (4.68 U/ml)
Molecule: TRLTRKRGLKLATAL [APO B-100 control peptide (3358-3372), apolipoprotein B-100 control peptide purchased from Sigma, reference compound]
effect on thromboplastin (in words) (thromboplastin [3]; listed as control 15 mer apolipoprotein B-100 (fragment 3358-3372) peptide): neither the control 15 mer apolipoprotein B-100 (fragment 3358-3372) peptide nor the chloramphenicol acetyltransferase control protein had any detectable effect

% Inhibition of thromboplastin delipidated and reconstituted in phosphatidylcholine; 500 nM, 30 min, 37 C [5]: 0.4% | Procoagulant Activity left of thromboplastin reconstituted in phosphatidylcholine; 500 nM, 30 min, 37 C [5]: 4.68 U/ml
Molecule: TRLTRKRGLKLATAL [apolipoprotein B-100 control peptide (fragment 3358-3372)]

% Inhibition of thromboplastin delipidated and reconstituted in phosphatidylcholine; 500 nM, 30 min, 37 C [5]: 99% | Procoagulant Activity left of thromboplastin reconstituted in phosphatidylcholine; 500 nM, 30 min, 37 C [5]: 0.05 U/ml
Molecule: KAQSKKNKHRHSTT [KRAD-14 peptide (recombinant, released from the biotinylated fusion protein with chymotrypsin)]
